In the Human Domainome abundance scans (Beltran et al. 2025) one finds abundance fitness data, which are given here for 48 variants.

± gives the uncertainty stated by the source.

First the molecules themselves.
B1: SH3 and PX domain-containing protein 2B, residues 155 to 209; numbered along this chain, A1X283 (parent)
chain: EQYVVVANYQKQESSEISLSVGQVVDIIEKNESGWWFVSTAEEQGWVPATCLEGQ

The variants in the data set derive from B1. Kind of data set: abundance fitness (aPCA) (normalised: wild type 0, dead -1); higher = more abundant; growth selection in yeast, the domain comes from the species named. Particulars: Homo sapiens.
In the case of EQYVVVANYQKQESSEISLSVGQVVDIIEKNESGWWFVSTAEEQGWVPFTCLEGQ, the abundance fitness is -0.139 ± 0.12.
Take EQYVVVANYQKQESSEISLSVGQVVDIIEKNESGWWFVSTAEEQGWVPDTCLEGQ: the abundance fitness was -0.214 ± 0.12.
In the case of EQYVVVANYQKQESSEISLSVGQVVDIIEKNESGWWFVSTAEEQGWVPETCLEGQ, the abundance fitness was -0.273 ± 0.15.
With EQYVVVANYQKQESSEISLSVGQVVDIIEKNESGWWFVSTAEEQGWVPCTCLEGQ, the abundance fitness was 0.045 ± 0.14.
For the variant EQYVVVANYQKQESSEISLSVGQVVDIIEKNESGWWFVSTAEEQGWVPGTCLEGQ, the abundance fitness was -0.016 ± 0.099.
For the variant EQYVVVANYQKQESSEISLSVGQVVDIIEKNESGWWFVSTAEYQGWVPATCLEGQ, the abundance fitness is -0.221 ± 0.16.
Then EQYVVVANYQKQESSEISLSVGQVVDIIEKNESGWWFVSTAEVQGWVPATCLEGQ, with -0.093 ± 0.073; and EQYVVVANYQKQESSEISLSVGQVVDIIEKNESGWWFVSTAESQGWVPATCLEGQ, with 0.033 ± 0.098; and EQYVVVANYQKQESSEISLSVGQVVDIIEKNESGWWFVSTAEWQGWVPATCLEGQ, with -0.31 ± 0.15.
Regarding EQYVVVANYQKQESSEISLSVGQVVDIIEKNESGWWFVSTAETQGWVPATCLEGQ, the abundance fitness was -0.033 ± 0.12.
For EQYVVVANYQKQESSEISLSVGQVVDIIEKNESGWWFVSTAERQGWVPATCLEGQ, the abundance fitness was -0.111 ± 0.067.
With EQYVVVANYQKQESSEISLSVGQVVDIIEKNESGWWFVSTAEEQGWVGATCLEGQ, the abundance fitness was -1 ± 0.12.
Turning to EQYVVVANYQKQESSEISLSVGQVVDIIEKNESGWWFVSTAEEQGWVEATCLEGQ, the abundance fitness is -0.522 ± 0.18.
Under EQYVVVANYQKQESSEISLSVGQVVDIIEKNESGWWFVSTAEEQGWVSATCLEGQ stands -0.544 ± 0.09; under EQYVVVANYQKQESSEISLSVGQVVDIIEKNESGWWFVSTAEEQGWVDATCLEGQ, -0.252 ± 0.2; under EQYVVVANYQKQESSEISLSVGQVVDIIEKNESGWWFVSTAEEQGWVNATCLEGQ, -0.492 ± 0.11.
Then EQYVVVANYQKQESSEISLSVGQVVDIIEKNESGWWFVSTAEEQGWVFATCLEGQ, with -0.998 ± 0.34.
As for EQYVVVANYQKQESSEISLSVGQVVDIIEKNESGWWFVSTAEEQGWVWATCLEGQ, the abundance fitness is -0.835 ± 0.12.
As to EQYVVVANYQKQESSEISLSVGQVVDIIEKNESGWWFVSTAEEQGWVQATCLEGQ, the abundance fitness was -0.568 ± 0.17.
As for EQYVVVANYQKQESSEISLSVGQVVDIIEKNESGWWFVSTAEEQGWVYATCLEGQ, the abundance fitness is -1.03 ± 0.32.
Under EQYVVVANYQKQESSEISLSVGQVVDIIEKNESGWWFVSTAEEQGWVIATCLEGQ stands -0.956 ± 0.26; under EQYVVVANYQKQESSEISLSVGQVVDIIEKNESGWWFVSTAEEQGWVAATCLEGQ, -0.626 ± 0.11; under EQYVVVANYQKQESSEISLSVGQVVDIIEKNESGWWFVSTAEEQGWVTATCLEGQ, -0.888 ± 0.16.
Then EQYVVVANYQKQESSEISLSVGQVVDIIEKNESGWWFVSTAEEQGWVHATCLEGQ, with -0.455 ± 0.11; and EQYVVVANYQKQESSEISLSVGQVVDIIEKNESGWWFVSTAEEQGWVCATCLEGQ, with -0.614 ± 0.15; and EQYVVVANYQKQESSEISLSVGQVVDIIEKNESGWWFVSTAEEQGWVRATCLEGQ, with -0.306 ± 0.068.
In the case of EQYVVVANYQKQESSEISLSVGQVVDIIEKNESGWWFVSTAEEQGWVLATCLEGQ, the abundance fitness is -0.455 ± 0.1.
Under EQYVVVANYQKQESSEISLSVGQVVDIIEKNESGWWFVSTAEEQGWVMATCLEGQ stands -0.76 ± 0.16.
Under EQYVVVANYQKQESSEISLSVGQVVDIIEKNESGWWFVSTAEEQGWVVATCLEGQ stands -0.79 ± 0.13; under EQYVVVANYQKQESSEISLSVGQVVDIIEKNESGWWFVSTAEEQGWVKATCLEGQ, -0.334 ± 0.1; under EQYVVVANYQKQESSEISLSVGQVVDIIEKNESGWWFVSTAEEQCWVPATCLEGQ, -0.779 ± 0.14.
Then EQYVVVANYQKQESSEISLSVGQVVDIIEKNESGWWFVSTAEEQTWVPATCLEGQ, with -0.683 ± 0.12; and EQYVVVANYQKQESSEISLSVGQVVDIIEKNESGWWFVSTAEEQAWVPATCLEGQ, with -0.604 ± 0.11; and EQYVVVANYQKQESSEISLSVGQVVDIIEKNESGWWFVSTAEEQDWVPATCLEGQ, with -0.964 ± 0.18.
For the variant EQYVVVANYQKQESSEISLSVGQVVDIIEKNESGWWFVSTAEEQLWVPATCLEGQ, the abundance fitness was -0.444 ± 0.085.
On to EQYVVVANYQKQESSEISLSVGQVVDIIEKNESGWWFVSTAEEQQWVPATCLEGQ, for which the abundance fitness is -0.734 ± 0.15.
Then EQYVVVANYQKQESSEISLSVGQVVDIIEKNESGWWFVSTAEEQFWVPATCLEGQ, with -0.744 ± 0.14; and EQYVVVANYQKQESSEISLSVGQVVDIIEKNESGWWFVSTAEEQEWVPATCLEGQ, with -1.21 ± 0.2.
Then EQYVVVANYQKQESSEISLSVGQVVDIIEKNESGWWFVSTAEEQPWVPATCLEGQ, with -1.19 ± 0.26.
As to EQYVVVANYQKQESSEISLSVGQVVDIIEKNESGWWFVSTAEEQKWVPATCLEGQ, the abundance fitness is -0.547 ± 0.15.
Under EQYVVVANYQKQESSEISLSVGQVVDIIEKNESGWWFVSTAEEQNWVPATCLEGQ stands -0.95 ± 0.43.
On to EQYVVVANYQKQESSEISLSVGQVVDIIEKNESGWWFVSTAEEQSWVPATCLEGQ, for which the abundance fitness is -0.965 ± 0.11.
Then EQYVVVANYQKQESSEISLSVGQVVDIIEKNESGWWFVSTAEEQIWVPATCLEGQ, with -0.643 ± 0.17.
Then EQYVVVANYQKQESSEISLSVGQVVDIIEKNESGWWFVSTAEEQHWVPATCLEGQ, with -0.815 ± 0.35.
As to EQYVVVANYQKQESSEISLSVGQVVDIIEKNESGWWFVSTAEEQMWVPATCLEGQ, the abundance fitness was -0.632 ± 0.13.
Under EQYVVVANYQKQESSEISLSVGQVVDIIEKNESGWWFVSTAEEQRWVPATCLEGQ stands -0.723 ± 0.085; under EQYVVVANYQKQESSEISLSVGQVVDIIEKNESGWWFVSTAEEQWWVPATCLEGQ, -0.919 ± 0.19; under EQYVVVANYQKQESSEISLSVGQVVDIIEKNESGWWFVSTAEEQVWVPATCLEGQ, -0.7 ± 0.088.
